Test results reported in paper PMC6162344.

Assays:
CENP-OPQU (human) = CENP-OPQU (human) (UniProt Q9BU64); test: AUC
[1] = target: Taxol-stabilised microtubules (TIRF) (pig) (UniProt P02550); test: TIRF microscopy of single particles on microtubules

Sequence of CENP-OPQU (Q9BU64 whole entry): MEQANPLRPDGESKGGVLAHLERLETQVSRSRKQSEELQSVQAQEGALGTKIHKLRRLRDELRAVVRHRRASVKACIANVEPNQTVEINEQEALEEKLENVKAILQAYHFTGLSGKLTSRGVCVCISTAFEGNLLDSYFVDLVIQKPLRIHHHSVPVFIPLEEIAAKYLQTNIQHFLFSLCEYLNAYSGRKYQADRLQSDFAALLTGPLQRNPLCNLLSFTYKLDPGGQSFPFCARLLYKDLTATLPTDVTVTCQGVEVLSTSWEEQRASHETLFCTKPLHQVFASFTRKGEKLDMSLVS
Sequence of CENP-OPQU (Q6IPU0 whole entry): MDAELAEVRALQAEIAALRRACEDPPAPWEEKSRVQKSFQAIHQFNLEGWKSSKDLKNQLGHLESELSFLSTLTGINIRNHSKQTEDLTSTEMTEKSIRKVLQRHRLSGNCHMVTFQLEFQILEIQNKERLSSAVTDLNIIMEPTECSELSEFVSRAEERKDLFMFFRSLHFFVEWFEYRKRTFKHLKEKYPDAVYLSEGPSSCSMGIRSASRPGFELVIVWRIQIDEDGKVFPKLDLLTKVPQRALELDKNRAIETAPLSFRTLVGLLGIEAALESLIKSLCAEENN
Sequence of CENP-OPQU (Q7L2Z9 whole entry): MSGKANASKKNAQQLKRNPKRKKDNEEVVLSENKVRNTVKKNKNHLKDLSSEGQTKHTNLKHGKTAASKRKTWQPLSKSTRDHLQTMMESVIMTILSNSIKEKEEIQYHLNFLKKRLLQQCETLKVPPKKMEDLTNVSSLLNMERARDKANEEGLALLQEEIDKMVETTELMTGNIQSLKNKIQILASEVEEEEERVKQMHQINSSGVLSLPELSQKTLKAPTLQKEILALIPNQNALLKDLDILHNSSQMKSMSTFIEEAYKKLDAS
Sequence of CENP-OPQU (Q71F23 whole entry): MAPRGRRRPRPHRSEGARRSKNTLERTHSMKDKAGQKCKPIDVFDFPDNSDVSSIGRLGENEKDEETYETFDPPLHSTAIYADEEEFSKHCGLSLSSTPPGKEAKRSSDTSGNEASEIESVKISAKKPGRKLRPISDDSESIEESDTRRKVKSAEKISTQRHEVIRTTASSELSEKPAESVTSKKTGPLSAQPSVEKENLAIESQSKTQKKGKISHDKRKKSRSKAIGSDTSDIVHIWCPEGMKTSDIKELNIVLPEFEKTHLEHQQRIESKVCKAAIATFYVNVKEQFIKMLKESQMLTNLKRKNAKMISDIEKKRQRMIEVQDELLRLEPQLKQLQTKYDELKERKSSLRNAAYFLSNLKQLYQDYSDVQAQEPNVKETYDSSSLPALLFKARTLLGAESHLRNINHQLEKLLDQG
Sequence of CENP-OPQU (human) (Q9BU64 whole entry, chain 1 of 4): as the sequence (Q9BU64 whole entry) above
Sequence of CENP-OPQU (human) (Q6IPU0 whole entry, chain 2 of 4, further chain): as the sequence (Q6IPU0 whole entry) above
Sequence of CENP-OPQU (human) (Q7L2Z9 whole entry, chain 3 of 4, further chain): as the sequence (Q7L2Z9 whole entry) above
Sequence of CENP-OPQU (human) (Q71F23 whole entry, chain 4 of 4, further chain): as the sequence (Q71F23 whole entry) above

stoichiometry N (CENP-OPQU (human))	mean time associated [1] [s]	Substance
1		CENP-R (co-expressed or co-lysed with CENP-OPQU subunits) (from UniProt Q13352 1-177) (natural protein)
	131	CENP-OPQU (from UniProt Q9BU64 1-300; Q6IPU0 1-288; Q7L2Z9 1-268; Q71F23 1-418) (complex)
